Laboratory results reported in patent US11434267B2, “Peptides having reduced toxicity that stimulate cholesterol efflux” (The Regents of the University of California, priority 2013, dated 2022).

Assays:
ABCA1 = target: T1, ABCA1 (Mus musculus, UniProt P41233); experiment: ABCA1-dependent cholesterol efflux from [3H]cholesterol-labeled J774 macrophages with and without cAMP; assay type: cell-based; conditions: cAMP treated J774, dose response, 4 h
T1 construct: treated (18 h) with a cAMP analog to induce ABCA1 protein expression; endogenous in cells; host or cells: J774 macrophages
T1 sequence (P41233 whole entry): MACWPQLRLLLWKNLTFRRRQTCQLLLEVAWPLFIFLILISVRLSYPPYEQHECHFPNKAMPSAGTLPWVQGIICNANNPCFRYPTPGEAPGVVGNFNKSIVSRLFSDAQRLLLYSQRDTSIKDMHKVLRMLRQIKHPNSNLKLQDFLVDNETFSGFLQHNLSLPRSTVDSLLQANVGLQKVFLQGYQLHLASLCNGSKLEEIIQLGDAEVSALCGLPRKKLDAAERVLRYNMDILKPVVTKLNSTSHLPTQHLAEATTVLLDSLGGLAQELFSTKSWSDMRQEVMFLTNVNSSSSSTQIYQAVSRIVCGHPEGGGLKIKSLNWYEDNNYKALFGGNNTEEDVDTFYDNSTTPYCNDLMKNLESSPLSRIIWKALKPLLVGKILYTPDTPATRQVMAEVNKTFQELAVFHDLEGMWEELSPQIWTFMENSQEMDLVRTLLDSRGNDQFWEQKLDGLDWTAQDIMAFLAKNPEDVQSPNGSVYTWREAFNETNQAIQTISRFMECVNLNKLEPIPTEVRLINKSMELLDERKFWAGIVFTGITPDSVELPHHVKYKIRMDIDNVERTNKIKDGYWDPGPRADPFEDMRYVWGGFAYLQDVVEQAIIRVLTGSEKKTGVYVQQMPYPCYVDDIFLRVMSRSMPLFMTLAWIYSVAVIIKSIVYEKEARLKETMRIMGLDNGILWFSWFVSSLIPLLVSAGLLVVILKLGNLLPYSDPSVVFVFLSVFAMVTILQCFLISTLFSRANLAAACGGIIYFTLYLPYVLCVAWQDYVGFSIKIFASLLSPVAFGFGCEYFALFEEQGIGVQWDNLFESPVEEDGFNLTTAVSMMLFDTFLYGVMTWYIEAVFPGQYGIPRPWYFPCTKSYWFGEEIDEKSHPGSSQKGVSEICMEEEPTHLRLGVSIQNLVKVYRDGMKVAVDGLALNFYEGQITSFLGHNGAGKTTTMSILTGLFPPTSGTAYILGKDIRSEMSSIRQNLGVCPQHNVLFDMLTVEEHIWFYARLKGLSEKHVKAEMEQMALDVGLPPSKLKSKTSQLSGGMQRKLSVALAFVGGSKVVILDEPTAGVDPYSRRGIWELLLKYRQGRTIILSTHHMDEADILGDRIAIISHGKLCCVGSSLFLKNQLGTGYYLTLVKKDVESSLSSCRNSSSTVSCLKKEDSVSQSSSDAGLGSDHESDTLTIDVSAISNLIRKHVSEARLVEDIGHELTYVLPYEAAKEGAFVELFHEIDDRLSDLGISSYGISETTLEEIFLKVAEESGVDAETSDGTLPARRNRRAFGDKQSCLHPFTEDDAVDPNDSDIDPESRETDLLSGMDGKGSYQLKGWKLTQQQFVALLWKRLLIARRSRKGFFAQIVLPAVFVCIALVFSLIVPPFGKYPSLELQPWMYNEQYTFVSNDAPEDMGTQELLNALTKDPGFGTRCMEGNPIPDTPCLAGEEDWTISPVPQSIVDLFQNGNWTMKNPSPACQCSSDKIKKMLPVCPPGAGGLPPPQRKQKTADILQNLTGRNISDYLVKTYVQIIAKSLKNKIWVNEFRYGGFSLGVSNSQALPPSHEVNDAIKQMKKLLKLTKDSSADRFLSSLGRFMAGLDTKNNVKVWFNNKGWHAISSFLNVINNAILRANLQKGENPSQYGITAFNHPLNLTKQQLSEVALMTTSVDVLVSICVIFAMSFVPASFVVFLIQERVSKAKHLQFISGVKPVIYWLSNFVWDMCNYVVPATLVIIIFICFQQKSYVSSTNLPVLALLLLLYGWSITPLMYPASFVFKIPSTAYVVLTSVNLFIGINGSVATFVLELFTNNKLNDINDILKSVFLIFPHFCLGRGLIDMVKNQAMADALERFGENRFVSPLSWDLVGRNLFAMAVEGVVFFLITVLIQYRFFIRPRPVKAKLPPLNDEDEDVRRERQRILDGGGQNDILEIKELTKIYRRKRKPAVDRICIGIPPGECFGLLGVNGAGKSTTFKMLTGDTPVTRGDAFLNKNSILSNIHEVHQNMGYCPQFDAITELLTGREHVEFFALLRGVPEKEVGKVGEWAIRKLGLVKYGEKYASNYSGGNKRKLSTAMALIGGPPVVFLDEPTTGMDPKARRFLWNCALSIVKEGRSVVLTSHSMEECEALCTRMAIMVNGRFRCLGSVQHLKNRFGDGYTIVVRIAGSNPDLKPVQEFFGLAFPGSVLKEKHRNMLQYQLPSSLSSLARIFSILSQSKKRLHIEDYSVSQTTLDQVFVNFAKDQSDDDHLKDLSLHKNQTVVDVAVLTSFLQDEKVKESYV
Source text: Suitable cholesterol efflux assays are described in, e.g., Bielicki, J. K and Oda, M. N., Biochemistry, 41:2089-2096 (2002); Jia et al., Biochem. Biophys. Res. Common., 297:206-213 (2002). In some embodiments, a polypeptide known to mediate cholesterol efflux (e.g., helix 9/10 of Apo A-I) is used to screen for additional mediators of cholesterol efflux in a cell based assay. For example, cell lines in which cholesterol efflux can be enhanced using a cAMP analog that up-regulates ABCA1 protein expression (e.g., J774 macrophages) can conveniently be used to assess the ability of a polypeptide of the present invention to mediate cholesterol efflux. The cells are incubated with labeled cholesterol (e.g., [^3H]cholesterol) under conditions appropriate for cholesterol uptake by the cells. Thus, cAMP or cAMP analogs (e.g., CPT-cAMP) are incubated with the cells for a suitable time before the initiation of cellular cholesterol efflux, i.e., prior to contacting the cells with a test polypeptide. Measurement of labeled cholesterol appearing in the medium is used to determine the cholesterol efflux mediating activity of the test polypeptide.
Aliphatic analogs of ATI-5261 lacking phenylalanine residues retained potent ABCA1 selective cholesterol efflux activity (FIG. 7). J774 macrophages were labeled (48 h) with [^3H]cholesterol and treated (18 h) with a cAMP analog to induce ABCA1 protein expression; cells incubated in the absence of cAMP (left bars) served as controls. […] Peptides were used at a concentration of 30 μg/ml, which was maximal for promoting cholesterol efflux activity. Panel B—Dependence of cholesterol efflux on the concentration of peptides. […] Results are expressed as the difference in cholesterol efflux (%/4 h) observed using cAMP treated vs. non-treated J774 cells. Values are means±SD, n=3.

human plasma = experiment: Cholesterol efflux activity of human plasma treated with lipid-free peptide (J774 cells); assay type: cell-based; conditions: plasma + 300 μg/ml peptide 5 min 4° C., diluted to 1%, cAMP treated J774
Method: (FIG. 33). To test whether CS6253 exerts anti-atherogenic effects in a biological milieu, human plasma was exposed (5 min) to lipid-free peptide. Interactions of CS6253 with HDL in plasma and activity of plasma to stimulate cholesterol efflux was assessed; the latter using J774 macrophages labeled with [3H]cholesterol. Panel A—Cholesterol efflux activity of plasma treated with lipid-free peptides. Human plasma was incubated with 300 μg/ml peptides for 5 minutes (4° C.), diluted to 1% in serum-free RPMI-1640 culture medium and immediately added to [3H]cholesterol-labeled J774 cells. […] Panel B—Induction of preβ HDL upon treatment of human plasma with CS6253. Plasma was exposed to a small amount of peptide relative to endogenous apoA-I (1:10 mole ratio, respectively) and formation of preβ HDL assessed by 2D non-denaturing gradient gel electrophoresis (NDGGE) and western blot analysis. […] The results are consistent with the production of authentic preβ HDL particles composed entirely of endogenous apoA-I.
To test whether T6991-2 exerts anti-atherogenic effects in a biological milieu, human plasma was exposed (5 min) to lipid-free peptide. Interactions of T6991-2 with HDL in plasma and activity of plasma to stimulate cholesterol efflux was assessed using J774 macrophages labeled with [3H]cholesterol. Panel A—Cholesterol efflux activity of plasma treated with lipid-free peptides. […]

## ATI-5261: HDL mimetic peptide, parent peptide with phenylalanine and arginine residues; toxic at high doses; used as positive control (EVRSKLEEWFAAFREFAEEFLARLKS)
ABCA1
  peptide concentration at saturation of cholesterol efflux: roughly 3 μg/ml
Human plasma
  capacity of treated plasma to stimulate cholesterol efflux via ABCA1: possessed greater capacity to stimulate cholesterol efflux
